T1: EsCas13d, nuclease-dead (Eubacterium siraeum, UniProt B0MS50, R295A;H300A;R849A;H854A)
T1 sequence: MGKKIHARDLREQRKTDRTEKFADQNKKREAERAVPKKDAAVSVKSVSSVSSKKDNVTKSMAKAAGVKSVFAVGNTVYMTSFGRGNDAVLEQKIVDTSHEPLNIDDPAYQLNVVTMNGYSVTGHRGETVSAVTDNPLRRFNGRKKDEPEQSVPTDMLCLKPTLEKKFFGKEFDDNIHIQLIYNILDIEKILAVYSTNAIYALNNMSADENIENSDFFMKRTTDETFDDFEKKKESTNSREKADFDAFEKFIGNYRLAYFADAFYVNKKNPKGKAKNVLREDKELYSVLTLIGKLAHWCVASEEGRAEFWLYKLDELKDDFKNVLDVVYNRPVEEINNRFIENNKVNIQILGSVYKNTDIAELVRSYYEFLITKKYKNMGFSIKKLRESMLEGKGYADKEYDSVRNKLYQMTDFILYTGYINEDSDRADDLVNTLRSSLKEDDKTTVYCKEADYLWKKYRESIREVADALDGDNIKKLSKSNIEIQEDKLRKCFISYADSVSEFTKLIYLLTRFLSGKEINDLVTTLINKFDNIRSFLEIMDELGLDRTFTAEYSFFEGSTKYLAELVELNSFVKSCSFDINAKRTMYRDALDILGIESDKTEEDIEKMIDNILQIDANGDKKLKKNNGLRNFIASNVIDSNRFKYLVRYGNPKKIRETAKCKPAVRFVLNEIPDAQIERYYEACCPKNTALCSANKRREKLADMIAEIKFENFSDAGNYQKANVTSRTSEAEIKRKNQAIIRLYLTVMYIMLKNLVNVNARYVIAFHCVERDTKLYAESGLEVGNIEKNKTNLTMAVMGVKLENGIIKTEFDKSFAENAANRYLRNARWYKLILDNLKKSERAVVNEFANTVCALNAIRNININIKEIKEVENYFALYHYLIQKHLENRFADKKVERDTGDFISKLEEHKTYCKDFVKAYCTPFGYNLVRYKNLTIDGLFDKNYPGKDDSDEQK


Molecular target: T1, EsCas13d, nuclease-dead
Experiment: crRNA (strand 1, pre-loaded); Mg2+; 40 mM Tris-HCl pH 7.5, 150 mM NaCl, 6 mM MgCl2, 1 mM DTT, 0.1% Tween-20, 0.2 mg/ml BSA; 25 C; 10 min per concentration, then washed
Conditions: tags: His6-TwinStrep-SUMO cleaved; N-terminal SNAP kept (SNAP-Surface 488); label: 3' end held by stalled T7 RNA polymerase

Binder	Kd [nM]
target 1 U11A,A16G (mixed) RNA 1: CACCCGUGCAAAAAUGCAGGGGUCUAAAACUGAGCGGAUAACCUCUCUAUGG RNA 2: GGGAAUGGAUCCACAUCUACGAAUUCGUACCAUAGGGAGGAUAUCCGCUCACCGAGAUCGGAAGAGCACACGU	77 ± 15
target 1 insA 3' of 21,insC 3' of 20 (mixed) RNA 1: CACCCGUGCAAAAAUGCAGGGGUCUAAAACUGAGCGGAUAACCUCUCUAUGG RNA 2: GGGAAUGGAUCCACAUCUACGAAUUCGUACCAACUAGAGAGGUUAUCCGCUCACCGAGAUCGGAAGAGCACACGU	10 ± 0.5
target 2 MT 5'PFS CGG 3'PFS ACA (mixed) RNA 1: CACCCGUGCAAAAUUGCAGGGGUCUAAAACCUUCUCCAAAUUGUUUCAUCCU RNA 2: GGGAAUGGAUCCACAUCUACGAAUUCCGGAGGAUGAAACAAUUUGGAGAAGACAAGAUCGGAAGAGCACACGU	5 ± 0.5
target 2 MT 5'PFS UUU 3'PFS AGG (mixed) RNA 1: CACCCGUGCAAAAUUGCAGGGGUCUAAAACCUUCUCCAAAUUGUUUCAUCCU RNA 2: GGGAAUGGAUCCACAUCUACGAAUUCUUUAGGAUGAAACAAUUUGGAGAAGAGGAGAUCGGAAGAGCACACGU	4.9 ± 0.6
target 2 MT 5'PFS CUG 3'PFS UUU (mixed) RNA 1: CACCCGUGCAAAAUUGCAGGGGUCUAAAACCUUCUCCAAAUUGUUUCAUCCU RNA 2: GGGAAUGGAUCCACAUCUACGAAUUCCUGAGGAUGAAACAAUUUGGAGAAGUUUAGAUCGGAAGAGCACACGU	5.5 ± 0.5
target 2 MT 5'PFS GUC 3'PFS AUG (mixed) RNA 1: CACCCGUGCAAAAUUGCAGGGGUCUAAAACCUUCUCCAAAUUGUUUCAUCCU RNA 2: GGGAAUGGAUCCACAUCUACGAAUUCGUCAGGAUGAAACAAUUUGGAGAAGAUGAGAUCGGAAGAGCACACGU	15.6 ± 1.9
target 2 MT 5'PFS GUC 3'PFS AUA (mixed) RNA 1: CACCCGUGCAAAAUUGCAGGGGUCUAAAACCUUCUCCAAAUUGUUUCAUCCU RNA 2: GGGAAUGGAUCCACAUCUACGAAUUCGUCAGGAUGAAACAAUUUGGAGAAGAUAAGAUCGGAAGAGCACACGU	12.6 ± 1.6
target 2 MT 5'PFS CGG 3'PFS UUC (mixed) RNA 1: CACCCGUGCAAAAUUGCAGGGGUCUAAAACCUUCUCCAAAUUGUUUCAUCCU RNA 2: GGGAAUGGAUCCACAUCUACGAAUUCCGGAGGAUGAAACAAUUUGGAGAAGUUCAGAUCGGAAGAGCACACGU	10.8 ± 1.7
target 2 MT 5'PFS CGG 3'PFS UUG (mixed) RNA 1: CACCCGUGCAAAAUUGCAGGGGUCUAAAACCUUCUCCAAAUUGUUUCAUCCU RNA 2: GGGAAUGGAUCCACAUCUACGAAUUCCGGAGGAUGAAACAAUUUGGAGAAGUUGAGAUCGGAAGAGCACACGU	6.5 ± 0.7
target 2 MT 5'PFS CUG 3'PFS UUG (mixed) RNA 1: CACCCGUGCAAAAUUGCAGGGGUCUAAAACCUUCUCCAAAUUGUUUCAUCCU RNA 2: GGGAAUGGAUCCACAUCUACGAAUUCCUGAGGAUGAAACAAUUUGGAGAAGUUGAGAUCGGAAGAGCACACGU	5.8 ± 0.9
target 2 MT 5'PFS UCU 3'PFS ACA (mixed) RNA 1: CACCCGUGCAAAAUUGCAGGGGUCUAAAACCUUCUCCAAAUUGUUUCAUCCU RNA 2: GGGAAUGGAUCCACAUCUACGAAUUCUCUAGGAUGAAACAAUUUGGAGAAGACAAGAUCGGAAGAGCACACGU	9.2 ± 1.9
target 2 MT 5'PFS CAU 3'PFS UCU (mixed) RNA 1: CACCCGUGCAAAAUUGCAGGGGUCUAAAACCUUCUCCAAAUUGUUUCAUCCU RNA 2: GGGAAUGGAUCCACAUCUACGAAUUCCAUAGGAUGAAACAAUUUGGAGAAGUCUAGAUCGGAAGAGCACACGU	4.7 ± 0.7
target 2 MT 5'PFS CGG 3'PFS UUA (mixed) RNA 1: CACCCGUGCAAAAUUGCAGGGGUCUAAAACCUUCUCCAAAUUGUUUCAUCCU RNA 2: GGGAAUGGAUCCACAUCUACGAAUUCCGGAGGAUGAAACAAUUUGGAGAAGUUAAGAUCGGAAGAGCACACGU	7 ± 1
target 2 MT 5'PFS CUG 3'PFS UUC (mixed) RNA 1: CACCCGUGCAAAAUUGCAGGGGUCUAAAACCUUCUCCAAAUUGUUUCAUCCU RNA 2: GGGAAUGGAUCCACAUCUACGAAUUCCUGAGGAUGAAACAAUUUGGAGAAGUUCAGAUCGGAAGAGCACACGU	7.3 ± 1.4
target 2 MT 5'PFS GGU 3'PFS UUC (mixed) RNA 1: CACCCGUGCAAAAUUGCAGGGGUCUAAAACCUUCUCCAAAUUGUUUCAUCCU RNA 2: GGGAAUGGAUCCACAUCUACGAAUUCGGUAGGAUGAAACAAUUUGGAGAAGUUCAGAUCGGAAGAGCACACGU	73 ± 28
target 2 MT 5'PFS AGG 3'PFS CCG (mixed) RNA 1: CACCCGUGCAAAAUUGCAGGGGUCUAAAACCUUCUCCAAAUUGUUUCAUCCU RNA 2: GGGAAUGGAUCCACAUCUACGAAUUCAGGAGGAUGAAACAAUUUGGAGAAGCCGAGAUCGGAAGAGCACACGU	8.2 ± 0.9
target 2 MT 5'PFS CUG 3'PFS UUA (mixed) RNA 1: CACCCGUGCAAAAUUGCAGGGGUCUAAAACCUUCUCCAAAUUGUUUCAUCCU RNA 2: GGGAAUGGAUCCACAUCUACGAAUUCCUGAGGAUGAAACAAUUUGGAGAAGUUAAGAUCGGAAGAGCACACGU	4.7 ± 0.4
target 2 MT 5'PFS GUC 3'PFS AUC (mixed) RNA 1: CACCCGUGCAAAAUUGCAGGGGUCUAAAACCUUCUCCAAAUUGUUUCAUCCU RNA 2: GGGAAUGGAUCCACAUCUACGAAUUCGUCAGGAUGAAACAAUUUGGAGAAGAUCAGAUCGGAAGAGCACACGU	13.5 ± 1.2
target 2 MT 5'PFS CUA 3'PFS CUU (mixed) RNA 1: CACCCGUGCAAAAUUGCAGGGGUCUAAAACCUUCUCCAAAUUGUUUCAUCCU RNA 2: GGGAAUGGAUCCACAUCUACGAAUUCCUAAGGAUGAAACAAUUUGGAGAAGCUUAGAUCGGAAGAGCACACGU	4 ± 0.8
target 2 MT 5'PFS GGC 3'PFS CCA (mixed) RNA 1: CACCCGUGCAAAAUUGCAGGGGUCUAAAACCUUCUCCAAAUUGUUUCAUCCU RNA 2: GGGAAUGGAUCCACAUCUACGAAUUCGGCAGGAUGAAACAAUUUGGAGAAGCCAAGAUCGGAAGAGCACACGU	16.9 ± 2.7
target 2 MT 5'PFS AGG 3'PFS CCU (mixed) RNA 1: CACCCGUGCAAAAUUGCAGGGGUCUAAAACCUUCUCCAAAUUGUUUCAUCCU RNA 2: GGGAAUGGAUCCACAUCUACGAAUUCAGGAGGAUGAAACAAUUUGGAGAAGCCUAGAUCGGAAGAGCACACGU	40 ± 15
target 2 MT 5'PFS GGU 3'PFS UUU (mixed) RNA 1: CACCCGUGCAAAAUUGCAGGGGUCUAAAACCUUCUCCAAAUUGUUUCAUCCU RNA 2: GGGAAUGGAUCCACAUCUACGAAUUCGGUAGGAUGAAACAAUUUGGAGAAGUUUAGAUCGGAAGAGCACACGU	68 ± 20
target 2 MT 5'PFS GGC 3'PFS CCG (mixed) RNA 1: CACCCGUGCAAAAUUGCAGGGGUCUAAAACCUUCUCCAAAUUGUUUCAUCCU RNA 2: GGGAAUGGAUCCACAUCUACGAAUUCGGCAGGAUGAAACAAUUUGGAGAAGCCGAGAUCGGAAGAGCACACGU	17.1 ± 3
target 2 MT 5'PFS CAC 3'PFS UGU (mixed) RNA 1: CACCCGUGCAAAAUUGCAGGGGUCUAAAACCUUCUCCAAAUUGUUUCAUCCU RNA 2: GGGAAUGGAUCCACAUCUACGAAUUCCACAGGAUGAAACAAUUUGGAGAAGUGUAGAUCGGAAGAGCACACGU	2.27 ± 0.29
